# Target: HIV-1 Env variant ADA.CM, trimer on virions (HIV-1 (ADA.CM))
substance,measurement,value
"4E10 Fab (parental, wild-type)","IC50 of neutralization of ADA.CM pseudovirus, TZM-bl assay",2.7 µg/mL

# Reference: article PMC8413895
